Reference: publication PMC3226435, “Slice orientation and muscarinic acetylcholine receptor activation determine the involvement of N-methyl D-aspartate receptor subunit GluN2B in hippocampal area CA1 long-term depression” (Molecular Brain, 2011)

Target: T1, N-methyl D-aspartate receptor subunit GluN2B (rat (endogenous in hippocampal slices), UniProt Q00960 27-1482)
T1 construct: NMDA receptor subunit GluN2B, endogenous in hippocampal slices of male Sprague-Dawley rats aged 14-21 days; Immunoprecipitated from the lysate with a rabbit polyclonal antibody against the GluN2B C-terminus; other NMDA receptor subunits may be present in the precipitate but were not examined; source: endogenous, lysate of rat hippocampal slices (RIPA buffer)
T1 sequence (Q00960 27-1482): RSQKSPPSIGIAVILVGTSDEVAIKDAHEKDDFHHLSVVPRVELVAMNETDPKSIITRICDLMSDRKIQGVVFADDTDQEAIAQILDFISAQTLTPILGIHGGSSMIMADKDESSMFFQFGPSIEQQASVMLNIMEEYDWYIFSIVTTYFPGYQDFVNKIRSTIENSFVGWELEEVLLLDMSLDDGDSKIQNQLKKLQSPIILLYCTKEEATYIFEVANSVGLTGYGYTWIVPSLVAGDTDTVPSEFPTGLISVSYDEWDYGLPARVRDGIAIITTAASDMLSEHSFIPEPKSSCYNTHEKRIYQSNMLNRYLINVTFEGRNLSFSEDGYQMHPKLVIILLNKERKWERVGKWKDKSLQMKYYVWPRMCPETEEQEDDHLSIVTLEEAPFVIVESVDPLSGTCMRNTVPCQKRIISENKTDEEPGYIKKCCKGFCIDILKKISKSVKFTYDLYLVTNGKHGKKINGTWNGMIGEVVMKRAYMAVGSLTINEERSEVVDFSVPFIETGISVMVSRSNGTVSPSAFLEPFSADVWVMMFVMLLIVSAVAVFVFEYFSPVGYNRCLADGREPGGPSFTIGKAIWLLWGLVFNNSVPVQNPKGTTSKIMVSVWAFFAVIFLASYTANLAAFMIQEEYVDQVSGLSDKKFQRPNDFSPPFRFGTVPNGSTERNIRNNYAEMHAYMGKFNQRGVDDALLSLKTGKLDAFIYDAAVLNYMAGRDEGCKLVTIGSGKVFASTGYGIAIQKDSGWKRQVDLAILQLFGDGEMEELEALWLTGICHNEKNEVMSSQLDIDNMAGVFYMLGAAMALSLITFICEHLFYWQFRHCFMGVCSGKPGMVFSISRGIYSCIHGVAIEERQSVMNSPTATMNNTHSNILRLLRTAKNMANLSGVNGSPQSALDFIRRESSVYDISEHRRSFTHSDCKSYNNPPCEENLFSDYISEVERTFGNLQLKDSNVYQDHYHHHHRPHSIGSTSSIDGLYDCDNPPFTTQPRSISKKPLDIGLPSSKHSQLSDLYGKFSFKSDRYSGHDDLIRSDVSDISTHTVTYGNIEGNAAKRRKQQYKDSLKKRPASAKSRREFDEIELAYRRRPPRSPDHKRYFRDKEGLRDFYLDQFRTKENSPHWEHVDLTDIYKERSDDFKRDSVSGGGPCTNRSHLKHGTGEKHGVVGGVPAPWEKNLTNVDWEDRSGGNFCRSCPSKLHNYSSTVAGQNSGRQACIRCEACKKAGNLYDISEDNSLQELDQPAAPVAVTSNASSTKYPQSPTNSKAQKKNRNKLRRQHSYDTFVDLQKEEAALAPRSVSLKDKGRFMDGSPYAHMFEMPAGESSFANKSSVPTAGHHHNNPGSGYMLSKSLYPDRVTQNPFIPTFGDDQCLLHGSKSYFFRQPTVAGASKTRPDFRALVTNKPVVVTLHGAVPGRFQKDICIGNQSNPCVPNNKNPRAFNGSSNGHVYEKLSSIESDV
Assay: co-IP; GluN2B immunoprecipitated with rabbit polyclonal anti-GluN2B C-terminal antibody on protein A beads from 500 ug RIPA lysate of rat hippocampal slices (sagittal control or 20 uM scopolamine for 2 hrs; untreated coronal or sagittal), overnight at 4°C, four washes in RIPA; Western blot for RasGRF1, RasGRF1 normalized to GluN2B
Settings: partners not purified

B1: Ras Guanine nucleotide Release Factor 1 (natural protein, rat (endogenous in hippocampal slices), UniProt P28818 1-1244, looked up)
chain: MQKAIRLNDGHVVSLGLLAQRDGTRKGYLSKRSSDNPKWQTKWFALLQNLLFYFESDSSSRPSGLYLLEGSICKRMPSPKRGTSSKESDKQHHYFTVNFSNDSQKSLELRTDDSKDCDEWVAAIARASYKILATEHEALMQKYLHLLQVVETEKTVAKQLRQQLEDGEVEIERLKAEIANLIKDNERIQSNQLVAPEDEDSDIKKIKKVQSFLRGWLCRRKWKNIIQDYIRSPHADSMRKRNQVVFSMLEAEAEYVQQLHILVNNFLRPLRMAASSKKPPITHDDVSSIFLNSETIMFLHQIFYQGLKARIASWPTLVLADLFDILLPMLNIYQEFVRNHQYSLQILAHCKQNRDFDKLLKQYEAKPDCEERTLETFLTYPMFQIPRYILTLHELLAHTPHEHVERNSLDYAKSKLEELSRVMHDEVSETENIRKNLAIERMITEGCEILLDTSQTFVRQGSLIQVPMSEKGKINKGRLGSLSLKKEGERQCFLFSKHLIICTRGSGSKLHLTKNGVISLIDCTLLDDPENMDDDGKGQEVDHLDFKIWVEPKDSPPFTVILVASSRQEKAAWTSDIIQCVDNIRCNGLMMNAFEENSKVTVPQMIKSDASLYCDDVDIRFSKTMNSCKVLQIRYASVERLLERLTDLRFLSIDFLNTFLHSYRVFTDAVVVLDKLISIYKKPITAIPARSLELLFSSSHNTKLLYGDAPKSPRASRKFSSPPPLAIGTSSPVRRRKLSLNIPIITGGKALELASLGCPSDGYTNIHSPISPFGKTTLDTSKLCVASSLTRTPEEIDMTTLEESSGFRKPTSDILKEESDDDQSDVDDTEVSPPTPKSFRNRITQEFPLFNYNSGIMMTCRDLMDSNRSPLSATSAFAIATAGANESPANKEIYRRMSLANTGYSSDQRNIDKEFVIRRAATNRVLNVLRHWVTKHSQDFETDDLLKYKVICFLEEVMHDPDLLPQERKAAANIMRTLTQEEITENHSMLDELLLMTEGVKTEPFENHSAMEIAEQLTLLDHLVFKSIPYEEFFGQGWMKADKNERTPYIMKTTRHFNHISNLIASEILRNEEVSARASTIEKWVAVADICRCLHNYNAVLEITSSINRSAIFRLKKTWLKVSKQTKSLFDKLQKLVSSDGRFKNLRETLRNCDPPCVPYLGMYLTDLAFLEEGTPNYTEDGLVNFSKMRMISHIIREIRQFQQTTYKIEPQPKVTQYLVDETFVLDDESLYEASLRIEPKLPT
notes: RasGRF1, Ras-specific guanine nucleotide exchange factor, endogenous in hippocampal slices of male Sprague-Dawley rats aged 14-21 days; Detected in the GluN2B immunoprecipitate by Western blot with a rabbit polyclonal anti-RasGRF1 antibody; also called RasGRF1; source: endogenous, lysate of rat hippocampal slices (RIPA buffer)
  ratio of normalized RasGRF1 in GluN2B immunoprecipitate, coronal/sagittal: 1.33 ± 0.105
  ratio of normalized RasGRF1 in GluN2B immunoprecipitate, scopolamine/control: 2.04 ± 0.451
